# Data taken from IntAct's records for PubMed 15161910.
# B1: Serine/threonine-protein kinase Nek2 (Homo sapiens), P51955 (parent)
# chain: MPSRAEDYEVLYTIGTGSYGRCQKIRRKSDGKILVWKELDYGSMTEAEKQMLVSEVNLLRELKHPNIVRYYDRIIDRTNTTLYIVMEYCEGGDLASVITKGTKERQYLDEEFVLRVMTQLTLALKECHRRSDGGHTVLHRDLKPANVFLDGKQNVKLGDFGLARILNHDTSFAKTFVGTPYYMSPEQMNRMSYNEKSDIWSLGCLLYELCALMPPFTAFSQKELAGKIREGKFRRIPYRYSDELNEIITRMLNLKDYHRPSVEEILENPLIADLVADEQRRNLERRGRQLGEPEKSQDSSPVLSELKLKEIQLQERERALKAREERLEQKEQELCVRERLAEDKLARAENLLKNYSLLKERKFLSLASNPELLNLPSSVIKKKVHFSGESKENIMRSENSESQLTSKSKCKDLKKRLHAAQLRAQALSDIEKNYQLKSRQILGMR
# partner: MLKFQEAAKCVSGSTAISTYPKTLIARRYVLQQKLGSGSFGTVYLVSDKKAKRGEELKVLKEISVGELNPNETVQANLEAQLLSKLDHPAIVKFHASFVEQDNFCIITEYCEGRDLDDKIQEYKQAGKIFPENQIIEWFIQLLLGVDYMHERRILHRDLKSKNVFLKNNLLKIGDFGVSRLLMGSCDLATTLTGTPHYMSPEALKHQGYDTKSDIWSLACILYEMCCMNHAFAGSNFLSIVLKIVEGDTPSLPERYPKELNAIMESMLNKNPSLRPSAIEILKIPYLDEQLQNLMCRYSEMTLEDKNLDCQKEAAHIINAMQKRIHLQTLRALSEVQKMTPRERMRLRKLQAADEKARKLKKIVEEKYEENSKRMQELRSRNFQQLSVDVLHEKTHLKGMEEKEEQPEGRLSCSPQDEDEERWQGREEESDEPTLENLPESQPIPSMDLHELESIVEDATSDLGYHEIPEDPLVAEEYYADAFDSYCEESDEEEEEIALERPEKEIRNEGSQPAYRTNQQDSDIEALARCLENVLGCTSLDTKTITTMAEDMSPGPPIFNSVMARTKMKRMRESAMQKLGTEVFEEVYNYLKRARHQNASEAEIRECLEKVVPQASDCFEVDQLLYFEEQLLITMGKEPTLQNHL
# Variants of: B1
# Conditions: with nek11_human NEK11, Q8NG66
row,Variant,effect of a mutation on the interaction
1,MPSRAEDYEVLYTIGTGSYGRCQKIRRKSDGKILVWRELDYGSMTEAEKQMLVSEVNLLRELKHPNIVRYYDRIIDRTNTTLYIVMEYCEGGDLASVITKGTKERQYLDEEFVLRVMTQLTLALKECHRRSDGGHTVLHRDLKPANVFLDGKQNVKLGDFGLARILNHDTSFAKTFVGTPYYMSPEQMNRMSYNEKSDIWSLGCLLYELCALMPPFTAFSQKELAGKIREGKFRRIPYRYSDELNEIITRMLNLKDYHRPSVEEILENPLIADLVADEQRRNLERRGRQLGEPEKSQDSSPVLSELKLKEIQLQERERALKAREERLEQKEQELCVRERLAEDKLARAENLLKNYSLLKERKFLSLASNPELLNLPSSVIKKKVHFSGESKENIMRSENSESQLTSKSKCKDLKKRLHAAQLRAQALSDIEKNYQLKSRQILGMR [K37R],decreasing interaction

# Variants of: B1
# Conditions: with nek11_human NEK11, Q8NG66
# Remark: another data set of the same source
row,Variant,effect of a mutation on the interaction
1,MPSRAEDYEVLYTIGTGSYGRCQKIRRKSDGKILVWRELDYGSMTEAEKQMLVSEVNLLRELKHPNIVRYYDRIIDRTNTTLYIVMEYCEGGDLASVITKGTKERQYLDEEFVLRVMTQLTLALKECHRRSDGGHTVLHRDLKPANVFLDGKQNVKLGDFGLARILNHDTSFAKTFVGTPYYMSPEQMNRMSYNEKSDIWSLGCLLYELCALMPPFTAFSQKELAGKIREGKFRRIPYRYSDELNEIITRMLNLKDYHRPSVEEILENPLIADLVADEQRRNLERRGRQLGEPEKSQDSSPVLSELKLKEIQLQERERALKAREERLEQKEQELCVRERLAEDKLARAENLLKNYSLLKERKFLSLASNPELLNLPSSVIKKKVHFSGESKENIMRSENSESQLTSKSKCKDLKKRLHAAQLRAQALSDIEKNYQLKSRQILGMR [K37R],increasing interaction
